Tests used:
Assay in all cases: Solid phase binding assay
LRP6 CR23 = target: T1, LRP6 CR23 (Homo sapiens, UniProt O75581); settings: highest ligand concentrations tested
T1 construct: the two CR pairs from LRP6 within the triplet (CR1 and 2, termed CR12, CR2 and 3, termed CR23); made in house; host or cells: E. coli BL21(DE3) CodonPlus-RIPL, pET30(+)a
T1 sequence (O75581 1286-1363 limits assumed): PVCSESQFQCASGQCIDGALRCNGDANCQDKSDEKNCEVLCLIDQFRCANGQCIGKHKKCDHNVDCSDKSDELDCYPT

MAT CR34 = target: T2, MAT CR34 (Homo sapiens, UniProt Q9Y5Y6); settings: separate set of experiments
T2 construct: MAT CR34 (ST14 CR34), amino acids 525-602; made in house; host or cells: E. coli BL21(DE3) CodonPlus-RIPL, pET30(+)a
T2 sequence (Q9Y5Y6 525-602): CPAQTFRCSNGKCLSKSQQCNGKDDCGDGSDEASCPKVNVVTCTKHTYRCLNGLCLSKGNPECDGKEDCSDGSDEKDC

MAT CR23 = target: T3, MAT CR23 (Homo sapiens, UniProt Q9Y5Y6); settings: highest ligand concentrations tested
T3 construct: made in house; host or cells: E. coli BL21(DE3) CodonPlus-RIPL, pET30(+)a
T3 sequence (Q9Y5Y6 487-566): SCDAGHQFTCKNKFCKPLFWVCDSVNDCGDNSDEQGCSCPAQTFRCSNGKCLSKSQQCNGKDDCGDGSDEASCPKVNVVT

binding relative to that for LRP1 CR3-5 (LRP6 CR23): less than 5%
binding (in words) (MAT CR34): undetectable
binding relative to that for LRP1 CR3-5 (MAT CR23): less than 5%
B1: RAP d3: third domain of human RAP, amino acids 201-319 of mature RAP, bacterially expressed with hexahistidine and S-peptide tags (SEQ ID NO: 92) (protein, listed as Homo sapiens)
chain: LDRLRRVSHQGYSTEAEFEEPRVIDLWDLEQSANLTDKELEAFREELKHFEAKIEKHNHYQKQLEIAHEKLRHAESVGDGERVSRSREKHALLEGRTKELGYTVKKHLQDLSGRISRAR
modifications: hexahistidine and S-peptide tags
